According to US20190330332A1, “Hypothermia Ameliorating Agent” (Kao Corporation, priority 2016, published 2019):
Blank lines part the entries; values can stand above or below the molecule they belong to. Ends that are not written are not given here.

Experiments:
[1] = system: C57BL/6J male mice fed high fat diet; test: Suppression of decrease in body temperature in mouse continuously taking in high fat diet; type: in vivo; conditions: in high fat diet for 26 weeks, measured at 34-week-old, compared to high fat diet control group
Protocol: Seven-week-old C57BL/6J male mice (CLEA Japan, Inc.) were transferred (room temperature: 23° C., humidity: 55±10%, light period: 7:00 to 19:00) and were fed with food and water ad libitum. The mice were acclimated using CE-2 (CLEA Japan, Inc.) as food for 1 week and were then grouped such that the body weights of each group were equivalent to each other and were fed with a normal diet containing 5% lipid (normal diet group), high fat diet containing 30% lipid (triacylglycerol) (high fat diet group), high fat diet containing 0.4% 4-hydroxybenzoic acid (2-bromobenzylidene) hydrazide (4H2BH, produced by the method described in Ling, et al., J. Med. Chem. 44: 3141-9, 2001) (4H2BH addition group), or high fat diet containing diacylglycerol (JP-A-2006-342084) instead of 30% triacylglycerol (DAG substitution group) for 26 weeks (34-week-old). During the breeding period, the body weight was measured once a week, and the food intake amount was measured twice a week. During the breeding period, the intake of the food and water was free. A probe was inserted into the rectum of each mouse at 34-week-old to measure the body temperature (rectal temperature).
(§1) The rectal temperature was measured with a digital rectal thermometer (NS-TC10, manufactured by NeuroScience, Inc.). […]

[2] = system: C57BLKS/J misty male mice (m/m mice); test: Acute decrease in body temperature (rectal temperature) by GIP; type: in vivo, mouse; conditions: 5 nmol/kg body weight intraperitoneal, 8-week-old m/m mice
Protocol: (§2) Six-week-old C57BLKS/J misty male mice (m/m mice, Oriental Yeast Co., Ltd.) were transferred (room temperature: 23° C., humidity: 55±10%, light period: 7:00 to 19:00) and were fed with food and water ad libitum. The food was CE-2 (CLEA Japan, Inc.), and the mice were acclimated for 2 weeks under the above-mentioned environment and were then used for testing.
Mouse-derived GIP (manufactured by AnaSpec, Inc.) was dissolved in physiological saline at a concentration of 500 nM to give a GIP solution.
Physiological saline (control group) or the GIP solution (5 nmol/kg body weight) (GIP administration group) was intraperitoneally administered to mice (8-week-old) in the light period (9:00 to 10:00 a.m.). Before the administration and 0.5, 2, 4.5, and 8 hours after the administration, a probe was inserted into the rectum of each mouse to measure the body temperature (rectal temperature).
The rectal temperature was measured with a digital rectal thermometer (NS-TC10, manufactured by NeuroScience, Inc.). According to Jikken Dobutsu Handobukku (Handbook of Experimental Animals) (Yokendo CO. Ltd., published in 1983), each mouse was retained under no anesthesia, and the tip of a probe (RET-3 (19×0.7 mm shaft diameter), manufactured by Physitemp instruments, LLC) was then inserted into the rectum of the mouse by 0.5 to 1 cm to measure for 15 to 30 seconds. […]

[3] = system: leptin receptor deficient C57BLKS/J male mice (db/db mice); test: Chronic decrease in body temperature by GIP and suppression by anti-GIP antibody; type: in vivo, mouse; conditions: intraperitoneal every morning for 28 days, measured 1 to 2 hours after administration
Protocol: as §2, with “Six-week-old leptin receptor deficient” for “Six-week-old”, “C57BLKS/J” for “C57BLKS/J misty”, “(db/db” for “(m/m”
Mouse-derived GIP (manufactured by AnaSpec, Inc.) was dissolved in physiological saline at a concentration of 500 nM to give a GIP solution. Mouse-derived GIP (manufactured by AnaSpec, Inc.) and the anti-active GIP antibody produced in Production Example 1 were dissolved in physiological saline at concentrations of 500 nM and 0.1 mg/mL, respectively, and the resulting solution was incubated for 1 to 2 hours at room temperature to give a GIP-binding anti-GIP antibody solution.
Physiological saline (control group), the GIP solution (5 nmol/kg body weight) (GIP administration group), or the GIP-binding anti-GIP antibody solution (GIP: 5 nmol/kg body weight, anti-GIP antibody: 1 mg/kg body weight) (GIP+anti-GIP antibody administration group) was intraperitoneally administered to mice (8-week-old) every morning (9:00 to 10:00 a.m.). […]
as §1

GIP(1-42) = target: T1, GIP(1-42) (Homo sapiens, UniProt P09681); test: Reactivity with active GIP by sandwich ELISA; type: binding; conditions: biotinylated antibody 1 μg/mL as detection antibody, GIP 8.2 to 2000 pg/mL
T1 sequence (P09681 52-93): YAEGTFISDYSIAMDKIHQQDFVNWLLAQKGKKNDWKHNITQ
Protocol: (§3) The reactivity between the monoclonal antibody prepared in Production Example 1 and active GIP was confirmed by ELISA. The amino group of the anti-active GIP monoclonal antibody was biotinylated with NH2 group biotinylation kit (manufactured by Dojindo Laboratories). ELISA was performed using the produced biotinylated anti-active GIP monoclonal antibody at 1 μg/mL instead of a detection antibody, GIP detection antibody (biotinylated anti-total GIP monoclonal antibody), included in Human (total) GIP ELISA kit (manufactured by EMD Millipore Corporation). A […] dilution series of GIP(1-42) or GIP(3-42) was prepared in 6 steps (8.2 to 2000 pg/mL) with a 2000 pg/mL solution as the highest concentration. By using an anti-total GIP monoclonal antibody (included in Human GIP (total) ELISA kit manufactured by EMD Millipore Corporation) as a capture antibody, the biotinylated anti-active GIP monoclonal antibody as a detection antibody, and a peroxidase-streptavidin conjugate for detection, sandwich ELISA was conducted to prepare a calibration curve with GIP concentration on the X-axis and 450 nm-590 nm absorbance on the Y-axis (FIG. 1).

[4] = target: T2, PEGylated N-terminus 13 amino acids of inactive GIP (GIP(3-15)) (also: PEGylated, site not given here); test: ELISA on immobilized antigen, hybridoma culture supernatant
T2 construct: Immobilized for the ELISA; also called antigen (2) for measurement; PEGylated GIP(3-15)
T2 peptide: EGTFISDYSIAMD
Protocol: (§4) The reaction between the hybridoma culture supernatant and the antigen (1) and (2) for measurement was evaluated by ELISA using immobilized antigen (1) and (2), and hybridomas that are positive for the antigen (1) and negative for the antigen (2) were selected as anti-active GIP monoclonal antibody-producing hybridomas.

[5] = target: T3, PEGylated N-terminus 15 amino acids of active GIP (GIP(1-15)) (also: PEGylated, site not given here); test: as above
T3 construct: Immobilized for the ELISA; also called antigen (1) for measurement; PEGylated GIP(1-15)
T3 peptide: YAEGTFISDYSIAMD
Protocol: as §4

[6] = system: C57BL/6J male mice (107-week-old); test: Suppression of decrease in body temperature by anti-GIP antibody in aged mouse; type: in vivo; conditions: aged C57BL/6J mice, 0.5 mg/kg intraperitoneal once a week for 8 weeks
Protocol: Four-week-old C57BL/6J male mice (CLEA Japan, Inc.) were transferred (room temperature: 23° C., humidity: 55±10%, light period: 7:00 to 19:00) and were fed with food (D12450K, Research Diets, Inc.) and water ad libitum for 111 weeks.
The anti-active GIP antibody produced in Production Example 1 was dissolved in physiological saline at a concentration of 0.05 mg/mL to give an anti-GIP antibody solution.
Physiological saline (control group) or the anti-GIP antibody solution (0.5 mg/kg body weight) (anti-GIP antibody administration group) was intraperitoneally administered to C57BL/6J mice (107-week-old) once a week (9:00 to 10:00 a.m.). The administration period was 8 weeks, and the probe was inserted into the rectum of each mouse chronologically (at 2 to 4 weeks intervals) to measure the body temperature (rectal temperature).
The rectal temperature was measured with a digital rectal thermometer (NS-TC10, manufactured by NeuroScience, Inc.). According to Jikken Dobutsu Handobukku (Handbook of Experimental Animals) (Yokendo CO. Ltd., published in 1983), each mouse was retained under no anesthesia, and the tip of a probe (RET-3 (19×0.7 mm shaft diameter), manufactured by Physitemp instruments, LLC) was then inserted into the rectum of the mouse by 0.5 to 1 cm to measure for 15 to 30 seconds.
The analysis results were shown as the average value (Ave.)±standard error (SE). […]

GIP(3-42) = target: T4, GIP(3-42) (Homo sapiens, UniProt P09681); test: Cross-reactivity with inactive GIP by sandwich ELISA; type: binding; conditions: biotinylated antibody 1 μg/mL as detection antibody, GIP 8.2 to 2000 pg/mL
T4 sequence (P09681 54-93): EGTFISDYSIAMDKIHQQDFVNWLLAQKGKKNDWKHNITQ
Protocol: as §3

GIP(3-42) (inactive GIP) = target: T5, GIP(3-42) (inactive GIP); test: sandwich ELISA; anti-total GIP monoclonal antibody as capture, biotinylated anti-active GIP antibody at 1 ug/mL as detector
T5 peptide: T4 sequence (P09681 54-93)
Protocol: as §3, with “NH₂” for “NH2”

Molecule: O=C(NN=Cc1ccccc1Br)c1ccc(O)cc1 [4H2BH, 4-hydroxybenzoic acid (2-bromobenzylidene) hydrazide]
decrease in body temperature (rectal) due to high fat diet intake [1]: suppressed

Molecule: GIP: Mouse-derived GIP (gastric inhibitory polypeptide, manufactured by AnaSpec, Inc.) dissolved in physiological saline at 500 nM (YAEGTFISDYSIAMDKIRQQDFVNWLLAQRGKKSDWKHNITQ)
decrease in the body temperature (rectal) compared to the control group ([2]; after 2 hours): 0.83 °C
decrease in the body temperature (rectal) compared to the control group ([2]; after 4.5 hours): 0.81 °C
chronic change in body temperature (rectal) compared to the control group [3]: chronic decrease in the body temperature was observed

binding result [4]: no binding
binding result [5]: binds
B1: anti-active GIP monoclonal antibody produced by hybridoma 9B9H5-B9 line (Production Example 1) (antibody, V domains shown)
VH: QVQLQQPGAELVKPGASVKLSCKASGYTFTSFWMHWVIQRPGQGLEWIGEMNPSDGRTHFNEKFKTKATLTIDTSSNTAYMELNSLTSEDSAVYYCARRMEDWGQGTLVTVSA
VL: DIKMTQSPSSMYASLGERVTITCKASQDINSYLGWFQQKPGKSPKTLIYGANRLVDGVPSRFSGSGSGQDYSLTISSLEYDDMGIYYCLQYDEFPLTFGAGTKLELKR
notes: in the screening and cloning ELISA it was hybridoma culture supernatant; also called anti-active GIP antibody
reactivity with GIP(1-42) (450 nm-590 nm absorbance) (GIP(1-42)): capable of specifically detecting GIP(1-42)
body temperature (rectal) compared to the control group and the non-administration group [6]: significantly high
decrease in the body temperature with aging [6]: suppression of a decrease in the body temperature with aging was observed
cross-reactivity with GIP(3-42) (450 nm-590 nm absorbance) (GIP(3-42)): does not show cross-reactivity with GIP(3-42)
binding result (GIP(3-42) (inactive GIP)): no binding (tested: 2000 pg/mL (highest GIP concentration))
